Measured values reported in patent US20240317847A1 (Bayer, published 2024).
Residue numbers refer to the chain shown, from its start.

T1: murine IL-11 (mouse, UniProt P47873 22-199)
T1 sequence: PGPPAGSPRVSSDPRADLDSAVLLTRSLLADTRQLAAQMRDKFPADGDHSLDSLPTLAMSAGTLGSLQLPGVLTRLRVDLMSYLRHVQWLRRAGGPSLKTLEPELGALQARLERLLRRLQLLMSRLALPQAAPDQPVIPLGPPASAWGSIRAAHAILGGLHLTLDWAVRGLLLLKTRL

T2: human IL-11 (human, UniProt P20809 22-199)
T2 sequence: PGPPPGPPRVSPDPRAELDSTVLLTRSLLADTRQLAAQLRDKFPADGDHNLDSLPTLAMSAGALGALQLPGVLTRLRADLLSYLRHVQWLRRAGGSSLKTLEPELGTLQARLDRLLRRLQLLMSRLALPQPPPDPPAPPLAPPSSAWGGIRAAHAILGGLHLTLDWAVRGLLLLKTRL

T3: human IL-11 (human, UniProt P20809 22-199)
T3 construct: Invigate, e.g. lot #C121021-19; biotinylated where coated in the ELISA; also called hIL-11; hIL11
T3 sequence: T2 sequence

T4: murine IL-11 (mouse, UniProt P47873 22-199)
T4 construct: Invigate, e.g. lot #C210819-09; biotinylated where coated in the ELISA; also called mIL-11; mIL11
T4 sequence: T1 sequence

T5: rat IL-11 (rat, UniProt Q99MF5 22-199)
T5 sequence: T1 sequence with S50N, L84F, G94A, V137A, I138V

T6: cynomolgus IL-11 (cynomolgus, UniProt P20808 22-199)
T6 sequence: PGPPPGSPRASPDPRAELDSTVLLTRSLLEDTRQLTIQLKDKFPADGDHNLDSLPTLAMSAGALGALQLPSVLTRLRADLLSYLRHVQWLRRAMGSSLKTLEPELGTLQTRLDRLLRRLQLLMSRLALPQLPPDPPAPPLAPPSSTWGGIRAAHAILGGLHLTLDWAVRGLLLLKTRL

B1: TPP-31293 (antibody, IgG4, V domains shown)
VH: EVQLLESGGGLVQPGGSLRLSCAASGFTFSHYDMNWVRQAPGKGLEWVGVISYDGSNKFYADFVKGRFTISRDNSKNTLYLQMNSLRAEDTAVYYCARTPGSHFDYWGQGTLVTVSS
VL: QSVLTQPPSASGTPGQRVTISCSGSSSNIGNNAVNWYQQLPGTAPKLLIYYDDLLPSGVPDRFSGSKSGTSASLAISGLRSEDEADYYCSAWDDSLNGVVFGGGTKLTVL
notes: hIgG4 SPLE, lambda
B2: TPP-31294 (antibody, IgG4, V domains shown)
VH: B1 VH with V37L, G49A
VL: B1 VL
notes: hIgG4 SPLE, lambda
B3: TPP-31296 (antibody, IgG4, V domains shown)
VH: B1 VH with V37L, F63S
VL: B1 VL
notes: hIgG4 SPLE, lambda
B4: TPP-31277 (antibody, IgG4, V domains shown)
VH: B1 VH with V37L
VL: B1 VL with N31S
notes: hIgG4 SPLE, lambda
B5: TPP-31278 (antibody, IgG4, V domains shown)
VH: B1 VH with V37L
VL: B1 VL with A33Y
notes: hIgG4 SPLE, lambda
B6: TPP-31284 (antibody, IgG4, V domains shown)
VH: B1 VH with V37L
VL: B1 VL with L55R
notes: hIgG4 SPLE, lambda
B7: TPP-23580 (antibody, mouse IgG1, kappa)
heavy: EVQLVQSGAEVKKPGASVKISCKASGYTFTDYNMDWVKQAPGQRLEWIGDINPHNGGPIYNQKFTGRATLTVDKSASTAYMELSSLRSEDTAVYYCARGELGHWYFDVWGQGTTVTVSSAKTTPPSVYPLAPGSAAQTNSMVTLGCLVKGYFPEPVTVTWNSGSLSSGVHTFPAVLQSDLYTLSSSVTVPSSTWPSETVTCNVAHPASSTKVDKKIVPRDCGCKPCICTVPEVSSVFIFPPKPKDVLTITLTPKVTCVVVDISKDDPEVQFSWFVDDVEVHTAQTQPREEQFNSTFRSVSELPIMHQDWLNGKEFKCRVNSAAFPAPIEKTISKTKGRPKAPQVYTIPPPKEQMAKDKVSLTCMITDFFPEDITVEWQWNGQPAENYKNTQPIMDTDGSYFVYSKLNVQKSNWEAGNTFTCSVLHEGLHNHHTEKSLSHSPGK
light: DIVLTQSPASLALSPGERATLSCRASKSVSTSGYSYIHWYQQKPGQPPRLLIYLASNLDSGVPARFSGSGSGTDFTLNIHPLEEEDFATYYCQHSRDLPPTFGQGTKLEIKRADAAPTVSIFPPSSEQLTSGGASVVCFLNNFYPKDINVKWKIDGSERQNGVLNSWTDQDSKDSTYSMSSTLTLTKDEYERHNSYTCEATHKTSTSPIVKSFNRNEC
notes: text calls it the mouse IgG1 version of the WO2019238882 antibody; also called BSN 3C6 2.2-2.1-mIgG1Kappa
B8: TPP-31285 (antibody, IgG4, V domains shown)
VH: B1 VH with V37L
VL: B1 VL with S90A
notes: hIgG4 SPLE, lambda
B9: TPP-31292 (antibody, IgG4, V domains shown)
VH: B1 VH with N35H, V37L
VL: B1 VL
notes: hIgG4 SPLE, lambda

Legend:
murine IL-11 [1] = target: T1, murine IL-11; assay: cell-based or functional assay
human IL-11 [2] = target: T2, human IL-11; assay: cell-based or functional assay
murine IL-11 [3] = target: T1, murine IL-11; assay: cell-based or functional assay; remark: listed apart in the source
human IL-11 [4] = target: T2, human IL-11; assay: cell-based or functional assay; remark: listed apart in the source
murine IL-11 [5] = target: T1, murine IL-11; assay: SPR; limit told of 12 single-site germlining mutants; antigen not given, SPR run on human and mouse IL-11
human IL-11 [6] = target: T2, human IL-11; assay: as above
human IL-11 [7] = target: T3, human IL-11; assay: Di-complex ELISA, competitor canine IL11RA-Fc on coated IL-11;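 for Efficacy (%): signal drop relative to signal at lowest antibody concentration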
murine IL-11 [8] = target: T4, murine IL-11; assay: as above
rat IL-11 [9] = target: T5, rat IL-11; assay: cell-based or functional assay
human IL-11 [10] = target: T3, human IL-11; assay: cell-based or functional assay; remark: listed apart in the source
cynomolgus IL-11 [11] = target: T6, cynomolgus IL-11; assay: cell-based or functional assay
murine IL-11 [12] = target: T4, murine IL-11; assay: cell-based or functional assay; remark: listed apart in the source
rat IL-11 [13] = target: T5, rat IL-11; assay: SPR 37 C, antibody captured, IL-11 as analyte
human IL-11 [14] = target: T3, human IL-11; assay: SPR 37 C, antibody captured, IL-11 as analyte
cynomolgus IL-11 [15] = target: T6, cynomolgus IL-11; assay: SPR 37 C, antibody captured, IL-11 as analyte
murine IL-11 [16] = target: T4, murine IL-11; assay: SPR 37 C, antibody captured, IL-11 as analyte

Binder | RGA potency (mean) (murine IL-11 [1]) [nM] | RGA potency (mean) (human IL-11 [2]) [nM] | IC50, RGA 1 (murine IL-11 [3]) [nM] | IC50, RGA 2 (murine IL-11 [3]) [nM] | IC50, RGA 1 (human IL-11 [4]) [nM] | IC50, RGA 2 (human IL-11 [4]) [nM] | Kd (murine IL-11 [5]) [nM] | Kd (human IL-11 [6]) [nM] | other results
B1 | < 170 | < 170 | 31 | 13 | 58 | 13 | < 19 | < 19 | 
B2 | < 170 | < 170 | 41 | 28 | 96 | 38 | < 19 | < 19 | 
B3 | < 170 | < 170 | 20 | 22 | 46 | 158 | < 19 | < 19 | 
B4 | < 170 | < 170 | 43 | 27 | 211 | 47 | < 19 | < 19 | 
B5 | < 170 | < 170 | 0.13 | 0.08 | 22 | 2.36 | < 19 | < 19 | 
B6 | < 170 | < 170 | 65 | 17 | 101 | 131 | < 19 | < 19 | 
B7 |  |  |  |  |  |  |  |  | Efficacy (%) (human IL-11 [7]): 93.3%; IC50 (human IL-11 [7]): 10 nM; Efficacy (%) (murine IL-11 [8]): 93%; IC50 (murine IL-11 [8]): 6.8 nM; RGA Efficacy (%) (rat IL-11 [9]): 62.2%; RGA IC50 (rat IL-11 [9]): 14 nM; RGA Efficacy (%) (human IL-11 [10]): 64%; RGA Efficacy (%) (cynomolgus IL-11 [11]): 21.9%; RGA Efficacy (%) (murine IL-11 [12]): 88.9%; RGA IC50 (murine IL-11 [12]): 7.9 nM; Kd (rat IL-11 [13]): 4.1 nM; Kd (human IL-11 [14]): 2.1 nM; binding result (cynomolgus IL-11 [15]): no binding (tested: IL-11 up to 200 nM); Kd (murine IL-11 [16]): 2.4 nM
B8 | < 170 | < 170 | 111 | 23 | 50 | 16 | < 19 | < 19 | 
B9 | < 170 | < 170 | 52 | 39 | 234 | 107 | < 19 | < 19 | 
